Experimental data from publication PMC7327521 (Journal of Molecular Biology, 2020).
Positions count from the first letter of the chain named. Square brackets hold non-standard residues; d marks the D form. Ends that are not written are not given here. pY = N[C@@H](Cc1ccc(OP(=O)(O)O)cc1)C(=O)O

What was measured:
Test in all cases: fluorescence polarisation
[1] = molecular target: T1, Spt6-tSH2 R1281A/S1283A (C. glabrata, UniProt Q6FLB1 1250-1444, R1281A | S1283A)
T1 sequence (looked up): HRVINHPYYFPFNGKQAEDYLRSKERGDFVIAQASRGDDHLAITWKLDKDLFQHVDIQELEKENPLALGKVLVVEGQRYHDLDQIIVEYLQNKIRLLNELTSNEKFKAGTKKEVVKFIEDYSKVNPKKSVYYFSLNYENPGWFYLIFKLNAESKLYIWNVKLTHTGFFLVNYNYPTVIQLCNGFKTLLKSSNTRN

[2] = molecular target: T2, Spt6-tSH2 R1285A (C. glabrata, UniProt Q6FLB1 1250-1444, R1285A)
T2 sequence (looked up): T1 sequence (looked up) with A32R, A34S, R36A

[3] = molecular target: T3, Spt6-tSH2 S1283A (C. glabrata, UniProt Q6FLB1 1250-1444, S1283A)
T3 sequence (looked up): T1 sequence (looked up) with A32R

[4] = molecular target: T4, Spt6-tSH2 R1281A/S1283A/R1285A (C. glabrata, UniProt Q6FLB1 1250-1444, R1281A | S1283A | R1285A)
T4 sequence (looked up): T1 sequence (looked up) with R36A

[5] = molecular target: T5, N-terminal SH2 domain of C. glabrata Spt6 (Spt6-N-SH2) (C. glabrata, UniProt Q6FLB1 1250-1354)
T5 sequence (looked up): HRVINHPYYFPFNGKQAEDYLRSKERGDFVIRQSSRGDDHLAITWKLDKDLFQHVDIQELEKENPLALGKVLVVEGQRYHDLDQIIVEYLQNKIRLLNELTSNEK

[6] = molecular target: T6, Spt6-tSH2 R1281A/S1284A (C. glabrata, UniProt Q6FLB1 1250-1444, R1281A | S1284A)
T6 sequence (looked up): T1 sequence (looked up) with A34S, S35A

[7] = molecular target: T7, Spt6-tSH2 E1324A (C. glabrata, UniProt Q6FLB1 1250-1444, E1324A)
T7 sequence (looked up): T1 sequence (looked up) with A32R, A34S, E75A

[8] = molecular target: T8, Spt6-tSH2 S1284A (C. glabrata, UniProt Q6FLB1 1250-1444, S1284A)
T8 sequence (looked up): T1 sequence (looked up) with A32R, A34S, S35A

## {5,6‑FAM}-PS[pY]SPTSPS[pY]SPTSPS [(pY1-CTD)2, FAM-labelled tyrosine-phosphorylated CTD diheptad]
[1]
  Kd: 35.5 µM
[2]
  Kd: 12 µM
[3]
  Kd: 5.4 µM
[4]
  Kd: 16.5 µM
[5]
  Kd: 313 µM
[6]
  Kd: 11.4 µM
[7]
  Kd: 1.4 µM
[8]
  Kd: 8.2 µM
